Test results taken from patent US20100135996A1 (INSTITUT NATIONAL DE LA SANTE ET DE LA RECHERCHE MEDICALE …, published 2010).

Molecular target: T1, human Anti-Mullerian Hormone type II receptor (AMHR-II) (human, UniProt Q16671 18-573)
T1 construct: whole, on cells; In the western blot it was the same protein in reduced SDS-PAGE lysates of xenografts of these cells; also called hAMHR-II
T1 sequence (looked up): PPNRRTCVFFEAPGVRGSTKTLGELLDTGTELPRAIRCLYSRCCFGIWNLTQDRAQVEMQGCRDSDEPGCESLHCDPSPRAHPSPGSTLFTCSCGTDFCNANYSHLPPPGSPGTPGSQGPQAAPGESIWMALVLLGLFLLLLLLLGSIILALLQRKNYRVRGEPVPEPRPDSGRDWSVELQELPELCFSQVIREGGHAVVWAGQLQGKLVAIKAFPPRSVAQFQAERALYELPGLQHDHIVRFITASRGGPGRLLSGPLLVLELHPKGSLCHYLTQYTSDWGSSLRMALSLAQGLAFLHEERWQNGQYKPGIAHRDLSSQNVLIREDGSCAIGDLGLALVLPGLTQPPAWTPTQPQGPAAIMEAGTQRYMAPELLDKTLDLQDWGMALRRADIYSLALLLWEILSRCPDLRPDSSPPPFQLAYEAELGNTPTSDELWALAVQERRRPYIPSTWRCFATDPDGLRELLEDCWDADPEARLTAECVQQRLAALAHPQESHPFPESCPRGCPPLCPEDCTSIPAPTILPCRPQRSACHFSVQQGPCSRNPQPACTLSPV
Assay: flow cytometry of hybridoma supernatants on AMHR-II positive cells

B1: anti-AMHR-II mAb 12G4 (antibody, mouse IgG1, V domains shown)
VH: QVQLQQSGPELVKPGASVRMSCKASGYTFTSYHIHWVKQRPGQGLEWIGWIYPGDDSTKYNEKFKGKTTLTADKSSSTAYMLLSSLTSEDSAIYFCTRGDRFAYWGQGTLVTVSA
VL: QIVLTQSPAIMSASLGEGITLTCSASSSVRYIHWYQQKSGTSPKLLIYSTSNLASGVPSRFSGSGSGTFHSLTISSVEAEDAADYYCLQWSSYPWTFGGGTKLEIK
notes: also called antibody of hybridoma CNCM I-3673
B1: binds.
